Measurements as given in patent US20160061835A1 (BAYLOR COLLEGE OF MEDICINE, published 2016).

Target: T1, Norwalk virus (NV) virus-like particle (Norwalk virus (genotype GI.1), UniProt Q83884 1-530; Q83885 1-212)
T1 construct: also called NV-VLP; NV-VLPs
T1 sequence 1: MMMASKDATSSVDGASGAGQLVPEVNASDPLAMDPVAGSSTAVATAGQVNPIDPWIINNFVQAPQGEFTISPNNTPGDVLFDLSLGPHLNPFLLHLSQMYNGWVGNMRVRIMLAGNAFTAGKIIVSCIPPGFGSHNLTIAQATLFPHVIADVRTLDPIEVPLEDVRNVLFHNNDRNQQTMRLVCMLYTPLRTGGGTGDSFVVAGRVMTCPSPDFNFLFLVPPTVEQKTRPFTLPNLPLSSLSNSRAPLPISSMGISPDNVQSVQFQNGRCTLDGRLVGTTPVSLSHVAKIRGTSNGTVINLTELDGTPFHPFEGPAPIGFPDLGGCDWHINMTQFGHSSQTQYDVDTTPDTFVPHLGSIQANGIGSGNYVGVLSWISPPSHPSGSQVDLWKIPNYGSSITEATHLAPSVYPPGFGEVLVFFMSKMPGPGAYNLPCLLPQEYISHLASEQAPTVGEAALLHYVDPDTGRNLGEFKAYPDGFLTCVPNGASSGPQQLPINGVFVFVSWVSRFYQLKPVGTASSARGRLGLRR
T1 sequence 2: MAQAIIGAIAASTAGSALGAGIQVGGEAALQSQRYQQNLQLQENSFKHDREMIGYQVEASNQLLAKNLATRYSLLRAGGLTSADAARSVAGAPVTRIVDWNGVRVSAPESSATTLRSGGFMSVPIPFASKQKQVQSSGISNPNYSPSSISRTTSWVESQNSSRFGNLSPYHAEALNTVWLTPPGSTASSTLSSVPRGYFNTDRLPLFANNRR
Test: capture ELISA: NV-VLP captured by immobilized polyclonal antibody, M13 phage antibody detection

B1: non-peptide displaying M13 phage (other)
chain: AETVESCLAKPHTENSFTNVWKDDKTLDRYANYEGCLWNATGVVVCTGDETQCYGTWVPIGLAIPENEGGGSEGGGSEGGGSEGGGTKPPEYGDTPIPGYTYINPLDGTYPPGTEQNPANPNPSLEESQPLNTFMFQNNRFRNRQGALTVYTGTVTQGTDPVKTYYQYTPVSSKAMYDAYWNGKFRDCAFHSGFNEDPFVCEYQGQSSDLPQPPVNAGGGSGGGSGGGSEGGGSEGGGSEGGGSEGGGSGGGSGSGDFDYEKMANANKGAMTENADENALQSDAKGKLDSVATDYGAAIDGFIGDVSGLANGNGATGDFAGSNSQMAQVGDGDNSPLMNNFRQYLPSLPQSVECRPFVFSAGKPYEFSIDCDKINLFRGVFAFLLYVATFMYVFSTFANILRNKES
notes: Whole phage particle used as negative control; also called M13 control phage
binding result: no binding
